B1: ZmPAH1-HSE1-HSE2L16 (dsDNA)
DNA 1: CAGCGTCACATGACGGGAATTTTCGTTCGAACGCATTCTG
DNA 2: CAGAATGCGTTCGAACGAAAATTCCCGTCATGTGACGCTG
B2: ZmPAH1-HSE2 (dsDNA)
DNA 1: CAGCGTCACATGACGGGAATTTTCACGTCTTTTCAGCCCT
DNA 2: AGGGCTGAAAAGACGTGAAAATTCCCGTCATGTGACGCTG
B3: ZmPAH1-HSE1-HSE2R16 (dsDNA)
DNA 1: TCTTCGAATTGCATAGGAAACTTCACGTCTTTTCAGCCCT
DNA 2: AGGGCTGAAAAGACGTGAAGTTTCCTATGCAATTCGAAGA
B4: ZmPAH1-HSE1-HSE2M2 (dsDNA)
DNA 1: TCTTCGAATTGCATAGGAATTTTCGTTCGAACGCATTCTG
DNA 2: CAGAATGCGTTCGAACGAAAATTCCTATGCAATTCGAAGA
B5: ZmPAH1-HSE1 (dsDNA)
DNA 1: TCTTCGAATTGCATAGGAAACTTCGTTCGAACGCATTCTG
DNA 2: CAGAATGCGTTCGAACGAAGTTTCCTATGCAATTCGAAGA

Sequence of ZmHsf17 (A0A5J6CYG6 entry or part of it): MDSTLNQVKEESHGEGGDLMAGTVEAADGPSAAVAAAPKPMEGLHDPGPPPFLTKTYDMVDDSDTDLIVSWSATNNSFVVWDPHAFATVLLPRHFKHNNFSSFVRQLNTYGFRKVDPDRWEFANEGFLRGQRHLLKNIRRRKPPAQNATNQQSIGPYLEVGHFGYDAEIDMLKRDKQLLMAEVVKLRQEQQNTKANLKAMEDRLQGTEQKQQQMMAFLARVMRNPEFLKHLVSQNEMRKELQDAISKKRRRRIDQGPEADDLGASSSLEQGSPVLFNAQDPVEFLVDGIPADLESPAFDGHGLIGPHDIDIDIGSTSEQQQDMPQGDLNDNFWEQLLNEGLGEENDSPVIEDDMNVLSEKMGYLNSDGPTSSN

The data set addresses ZmHsf17 (Zea mays, UniProt A0A5J6CYG6 1-373). Description: EMSA; EMSA/Gel-Shift buffer (Beyotime GS009; composition, salt and pH not stated), 10 uL, 25 C 30 min; 6% native PAGE in 0.5x TBE at 4 C. As to conditions: protein: recombinant; tags: 6xHis (stated C-terminal; pET-30a); chain copies: 3; label: biotin; blunt. (Mobility shift assays separate free from complexed probe on a gel.)
In the case of B1, the binding result is given as “binds”.

For the molecule B2, the binding result is listed as “binds”.

On to B3, for which the binding result is listed as “binds”.

For the molecule B4, the binding result was “no binding”.

As to B5, the binding result is given as “no binding”.

The record behind these values is article PMC12251660, “The Structural Deciphering of the α3 Helix Within ZmHsfA2’S DNA-Binding Domain for the Recognition of Heat Shock Elements in Maize”.
